Source: PMC8811837 (Advanced Science, 2021)

Molecular target: T1, σ70 (E. coli, UniProt P00579)
T1 construct: also called σR4 (region 4); σ70 R4
Assay: cryo-EM structure
Settings: both partners purified

T1 sequence (P00579 whole entry): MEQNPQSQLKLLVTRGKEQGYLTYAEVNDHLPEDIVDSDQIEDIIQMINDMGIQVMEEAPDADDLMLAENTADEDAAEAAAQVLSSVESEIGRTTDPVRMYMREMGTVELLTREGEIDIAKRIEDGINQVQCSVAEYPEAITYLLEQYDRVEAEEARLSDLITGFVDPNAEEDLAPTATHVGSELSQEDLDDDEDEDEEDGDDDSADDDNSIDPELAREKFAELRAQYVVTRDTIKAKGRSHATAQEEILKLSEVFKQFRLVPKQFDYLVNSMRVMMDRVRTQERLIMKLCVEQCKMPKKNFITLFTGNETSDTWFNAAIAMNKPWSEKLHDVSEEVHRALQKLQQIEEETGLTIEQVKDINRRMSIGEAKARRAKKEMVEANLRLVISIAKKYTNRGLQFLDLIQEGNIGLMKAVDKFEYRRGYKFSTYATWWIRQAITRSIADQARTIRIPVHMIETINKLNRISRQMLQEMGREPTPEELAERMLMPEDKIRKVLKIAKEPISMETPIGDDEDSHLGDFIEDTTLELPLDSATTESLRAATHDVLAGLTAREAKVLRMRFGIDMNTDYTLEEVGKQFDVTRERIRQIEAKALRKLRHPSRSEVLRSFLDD

B1: RamA (natural protein)
chain: MTISAQVIDTIVEWIDDNLHQPLRIDDIARHAGYSKWHLQRLFLQYKGESLGRYIRERKLLLAARDLRDTDQRVYDICLKYGFDSQQTFTRVFTRTFNQPPGAYRKENHSRAH
B1: binds.
